B1: TERF2 (protein, UniProt O35144 1-541, looked up)
Telomeric repeat-binding …: MAAGAGTAGPASGPGVVRDPMASQPRKRPSREGGEGGEGERRSNTMAGGGGSSDSSGRAASRRASRSGGRARRGRHEPGLGGAAERGAGEARLEEAVNRWVLKFYFHEALRAFRSSRYRDFRQIRDIMQALLVRPLGKEHTVSRLLRVMQCLSRIEEGENLDCSFDMEAELTPLESAINVLEMIKTEFTLTDSMVESSRKLVKEAAVIICIKNKEFEKASKILKKYMSKDPTTQKLRTDLLNIIREKNLAHPVIQNFSYEVFQQKMLRFLESHLDDTEPYLLTMAKKALKSESAASSTMREEKHPEPVEKPLREPPSRQPQNPPATIGIRTLKAAFKALSTAQDSEAAFAKLDQKDLVLANLASPSSPAHKHKRPRKDEHESAAPAEGEGGSDRQPRNSPMTISRLLLEEDSQSTEPSPGLNSSHKAMSASKPRALNQPHPGEKKPKASKDKWNSPNGLEEKEVWLEEDQLFEVQAPGEDRSSSLTRKQKWTIEESEWVKDGVRKYGEGNWAAISKSYPFVNRTAVMIKDRWRTMKKLGMN
B2: TCEB2 (protein, UniProt Q15370 1-118, looked up)
Elongin-B: MDVFLMIRRHKTTIFTDAKESSTVFELKRIVEGILKRPPDEQRLYKDDQLLDDGKTLGECGFTSQTARPQAPATVGLAFRADDTFEALCIEPFSSPPELPDVMKPQDSGSSANEQAVQ
B3: TFEC (protein, UniProt O14948 1-347, looked up)
Transcription factor EC: MTLDHQIINPTLKWSQPAVPSGGPLVQHAHTTLDSDAGLTENPLTKLLAIGKEDDNAQWHMEDVIEDIIGMESSFKEEGADSPLLMQRTLSGSILDVYSGEQGISPINMGLTSASCPSSLPMKREITETDTRALAKERQKKDNHNLIERRRRYNINYRIKELGTLIPKSNDPDMRWNKGTILKASVEYIKWLQKEQQRARELEHRQKKLEQANRRLLLRIQELEIQARTHGLPTLASLGTVDLGAHVTKQQSHPEQNSVDYCQQLTVSQGPSPELCDQAIAFSDPLSYFTDLSFSAALKEEQRLDGMLLDDTISPFGTDPLLSATSPAVSKESSRRSSFSSDDGDEL
B4: TCF21 (protein, UniProt O43680 1-179, looked up)
Transcription factor 21: MSTGSLSDVEDLQEVEMLECDGLKMDSNKEFVTSNESTEESSNCENGSPQKGRGGLGKRRKAPTKKSPLSGVSQEGKQVQRNAANARERARMRVLSKAFSRLKTTLPWVPPDTKLSKLDTLRLASSYIAHLRQILANDKYENGYIHPVNLTWPFMVAGKPESDLKEVVTASRLCGTTAS
B5: TCF24 (protein, UniProt Q7RTU0 1-167, looked up)
Transcription factor 24: MDRGRPAGSPLSASAEPAPLAAAIRDSRPGRTGPGPAGPGGGSRSGSGRPAAANAARERSRVQTLRHAFLELQRTLPSVPPDTKLSKLDVLLLATTYIAHLTRSLQDDAEAPADAGLGALRGDGYLHPVKKWPMRSRLYIGATGQFLKHSVSGEKTNHDNTPTDSQP
B6: TCFL5 (protein, UniProt Q9UL49 1-500, looked up)
Transcription factor-like 5 …: MSGPGPREPPPEAGAAGGEAAVEGAGGGDAALGEPGLSFTTTDLSLVEMTEVEYTQLQHILCSHMEAAADGELETRLNSALLAAAGPGAGAGGFAAGGQGGAAPVYPVLCPSALAADAPCLGHIDFQELRMMLLSEAGAAEKTSGGGDGARARADGAAKEGAGAAAAAAGPDGAPEARAKPAVRVRLEDRFNSIPAEPPPAPRGPEPPEPGGALNNLVTLIRHPSELMNVPLQQQNKCTALVKNKTAATTTALQFTYPLFTTNACSTSGNSNLSQTQSSSNSCSVLEAAKHQDIGLPRAFSFCYQQEIESTKQTLGSRNKVLPEQVWIKVGEAALCKQALKRNRSRMRQLDTNVERRALGEIQNVGEGATATQGAWQSSESSQANLGEQAQSGPQGGRSQRRERHNRMERDRRRRIRICCDELNLLVPFCNAETDKATTLQWTTAFLKYIQERHGDSLKKEFESVFCGKTGRRLKLTRPDSLVTCPAQGSLQSSPSMEIK
B7: TBX20 (protein, UniProt Q9UMR3 1-447, looked up)
T-box transcription factor …: MEFTASPKPQLSSRANAFSIAALMSSGGSKEKEATENTIKPLEQFVEKSSCAQPLGELTSLDAHGEFGGGSGSSPSSSSLCTEPLIPTTPIIPSEEMAKIACSLETKELWDKFHELGTEMIITKSGRRMFPTIRVSFSGVDPEAKYIVLMDIVPVDNKRYRYAYHRSSWLVAGKADPPLPARLYVHPDSPFTGEQLLKQMVSFEKVKLTNNELDQHGHIILNSMHKYQPRVHIIKKKDHTASLLNLKSEEFRTFIFPETVFTAVTAYQNQLITKLKIDSNPFAKGFRDSSRLTDIERESVESLIQKHSYARSPIRTYGGEEDVLGDESQTTPNRGSAFTTSDNLSLSSWVSSSSSFPGFQHPQSLTALGTSTASIATPIPHPIQGSLPPYSRLGMPLTPSAIASSMQGSGPTFPSFHMPRYHHYFQQGPYAAIQGLRHSSAVMTPFV
B8: TBX6 (protein, UniProt O95947 1-436, looked up)
T-box transcription factor …: MYHPRELYPSLGAGYRLGPAQPGADSSFPPALAEGYRYPELDTPKLDCFLSGMEAAPRTLAAHPPLPLLPPAMGTEPAPSAPEALHSLPGVSLSLENRELWKEFSSVGTEMIITKAGRRMFPACRVSVTGLDPEARYLFLLDVIPVDGARYRWQGRRWEPSGKAEPRLPDRVYIHPDSPATGAHWMRQPVSFHRVKLTNSTLDPHGHLILHSMHKYQPRIHLVRAAQLCSQHWGGMASFRFPETTFISVTAYQNPQITQLKIAANPFAKGFRENGRNCKRERDARVKRKLRGPEPAATEAYGSGDTPGGPCDSTLGGDIRESDPEQAPAPGEATAAPAPLCGGPSAEAYLLHPAAFHGAPSHLPTRSPSFPEAPDSGRSAPYSAAFLELPHGSGGSGYPAAPPAVPFAPHFLQGGPFPLPYTAPGGYLDVGSKPMY
B9: TCF15 (protein, UniProt Q12870 1-199, looked up)
Transcription factor 15: MAFALLRPVGAHVLYPDVRLLSEDEENRSESDASDQSFGCCEGPEAARRGPGPGGGRRAGGGGGAGPVVVVRQRQAANARERDRTQSVNTAFTALRTLIPTEPVDRKLSKIETVRLASSYIAHLANVLLLGDSADDGQPCFRAAGSAKGAVPAAADGGRQPRSICTFCLSNQRKGGGRRDLGGSCLKVRGVAPLRGPRR
B10: TCF25 (protein, UniProt Q9BQ70 1-676, looked up)
Ribosome quality control …: MSRRALRRLRGEQRGQEPLGPGALHFDLRDDDDAEEEGPKRELGVRRPGGAGKEGVRVNNRFELINIDDLEDDPVVNGERSGCALTDAVAPGNKGRGQRGNTESKTDGDDTETVPSEQSHASGKLRKKKKKQKNKKSSTGEASENGLEDIDRILERIEDSTGLNRPGPAPLSSRKHVLYVEHRHLNPDTELKRYFGARAILGEQRPRQRQRVYPKCTWLTTPKSTWPRYSKPGLSMRLLESKKGLSFFAFEHSEEYQQAQHKFLVAVESMEPNNIVVLLQTSPYHVDSLLQLSDACRFQEDQEMARDLVERALYSMECAFHPLFSLTSGACRLDYRRPENRSFYLALYKQMSFLEKRGCPRTALEYCKLILSLEPDEDPLCMLLLIDHLALRARNYEYLIRLFQEWEAHRNLSQLPNFAFSVPLAYFLLSQQTDLPECEQSSARQKASLLIQQALTMFPGVLLPLLESCSVRPDASVSSHRFFGPNAEISQPPALSQLVNLYLGRSHFLWKEPATMSWLEENVHEVLQAVDAGDPAVEACENRRKVLYQRAPRNIHRHVILSEIKEAVAALPPDVTTQSVMGFDPLPPSDTIYSYVRPERLSPISHGNTIALFFRSLLPNYTMEGERPEEGVAGGLNRNQGLNRLMLAVRDMMANFHLNDLEAPHEDDAEGEGEWD
B11: TFDP3 (protein, UniProt Q5H9I0 1-405, looked up)
Transcription factor Dp …: MAKYVSLTEANEELKVLMDENQTSRPVAVHTSTVNPLGKQLLPKTFGQSSVNIDQQVVIGMPQRPAASNIPVVGSPNPPSTHFASQNQHSYSSPPWAGQHNRKGEKNGMGLCRLSMKVWETVQRKGTTSCQEVVGELVAKFRAASNHASPNESAYDVKNIKRRTYDALNVLMAMNIISREKKKIKWIGLTTNSAQNCQNLRVERQKRLERIKQKQSELQQLILQQIAFKNLVLRNQYVEEQVSQRPLPNSVIHVPFIIISSSKKTVINCSISDDKSEYLFKFNSSFEIHDDTEVLMWMGMTFGLESGSCSAEDLKMARNLVPKALEPYVTEMAQGTFGGVFTTAGSRSNGTWLSASDLTNIAIGMLATSSGGSQYSGSRVETPAVEEEEEEDNNDDDLSENDEDD
B12: TBR1 (protein, UniProt Q16650 1-682, looked up)
T-box brain protein 1: MQLEHCLSPSIMLSKKFLNVSSSYPHSGGSELVLHDHPIISTTDNLERSSPLKKITRGMTNQSDTDNFPDSKDSPGDVQRSKLSPVLDGVSELRHSFDGSAADRYLLSQSSQPQSAATAPSAMFPYPGQHGPAHPAFSIGSPSRYMAHHPVITNGAYNSLLSNSSPQGYPTAGYPYPQQYGHSYQGAPFYQFSSTQPGLVPGKAQVYLCNRPLWLKFHRHQTEMIITKQGRRMFPFLSFNISGLDPTAHYNIFVDVILADPNHWRFQGGKWVPCGKADTNVQGNRVYMHPDSPNTGAHWMRQEISFGKLKLTNNKGASNNNGQMVVLQSLHKYQPRLHVVEVNEDGTEDTSQPGRVQTFTFPETQFIAVTAYQNTDITQLKIDHNPFAKGFRDNYDTIYTGCDMDRLTPSPNDSPRSQIVPGARYAMAGSFLQDQFVSNYAKARFHPGAGAGPGPGTDRSVPHTNGLLSPQQAEDPGAPSPQRWFVTPANNRLDFAASAYDTATDFAGNAATLLSYAAAGVKALPLQAAGCTGRPLGYYADPSGWGARSPPQYCGTKSGSVLPCWPNSAAAAARMAGANPYLGEEAEGLAAERSPLPPGAAEDAKPKDLSDSSWIETPSSIKSIDSSDSGIYEQAKRRRISPADTPVSESSSPLKSEVLAQRDCEKNCAKDISGYYGFYSHS
B13: TBX19 (protein, UniProt Q99ME7 1-446, looked up)
T-box transcription factor …: MSELATQKAGEGTVSRLLNVVESELQAGREKGDPTEKQLQIILEDAPLWQRFKEVTNEMIVTKNGRRMFPVLKISVTGLDPNAMYSLLLDFVRTDSHRWKYVNGEWVPAGKPEVSSHSCVYIHPDSPNFGAHWMKAPISFSKVKLTNKLNGGGQIMLNSLHKYEPQVHIVRVGGAHRMVMNCSFPETQFIAVTAYQNEEITALKIKYNPFAKAFLDAKERNHLKDVPEAISESQHVTYSHLGGWILSNPDGVCTAANSNYQYATPLPLPAPHTHHGCEHYAGLRGHRQAPYPSAYMHRNHSPSVNLIESSSNNLQVFSGPDSWTSLSSTPHASILSVPHSNGPINPGPSPYPCLWTISNGGGGPVASGSEVHASTSGTILLGNPAVTSPSSLLPTQATTSAGVEVLGEPSLTSIAVSTWTAVASHPLPGWGGPGGAGRHSSSSLDS

The molecules below were run on HEK293FT cells transfected with TF library (assay: Screening of TF condensates based on fluorescent puncta). Conditions: Figure 1B numerical data; TF library screen, one value per transcriptional factor.
Format: cell-based
Procedure, shortened: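 Cells were seeded onto plasmid/PEI-loaded wells (plasmid 1.6 μg/ml final) and grown 60 h. Medium with or without glucose followed for 12 h. Fixed, permeabilized cells were stained against Flag or GAL4 tags, and condensate puncta were quantified from 50 random fields per well.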

Compared with B1, B2 is lower in “Z score of condensed fraction” value: 0.4642 for the first, -0.4277 for the second.

First: B3
Second: B4
The “Z score of condensed fraction” value of the first is higher: 1.616 for the first, 0.06751 for the second.

Compared with B5, B6 is higher in “Z score of condensed fraction” value: -0.9879 for the first, -0.869 for the second.

First: B7
Second: B8
The “Z score of condensed fraction” value of the first is higher: 0.6837 for the first, -0.7283 for the second.

Going from B9 to B10, the “Z score of condensed fraction” value rises from 0.7138 to 2.145.

Going from B11 to B12, the “Z score of condensed fraction” value falls from 0.6635 to -0.7739.

For B13, the “Z score of condensed fraction” value was 1.015.

— PMC11574045, “A cofactor-induced repressive type of transcription factor condensation can be induced by synthetic peptides to suppress tumorigenesis” (The EMBO Journal, 2024)
